In article PMC5691159 (Nature Communications, 2017) one finds Kd and reduction of binding to merozoites after treatment with anti-RhopH3-C antibody data, which are given here for four molecules.

In general, Kd refers to the concentration at which binding is half-saturated.

The target of assay [1] is recombinant Cyclophilin B (Sino Biological) (human). As to the kind of experiment: SPR; Biacore T200, 25 °C; CypB (200 RU) amine-coupled on CM5 chip; analyte injected at 30 µl/min; running buffer 50 mM HEPES, 150 mM NaCl, 5 mM MgCl2, pH 7.4; 1:1 (Langmuir) model.
The target of assay [2] is PfRhopH3 on the P. falciparum merozoite surface (P. falciparum (endogenous in merozoites)) (UniProt Q8I395). In words: immunostaining of cells or tissue; free merozoites incubated with 25 µM Cyclophilin B for 2 h at RT, with or without pre-incubation with rabbit anti-PfRhopH3 or anti-Rap2b antibody (1:25, 15 min); bound CypB stained and its fluorescence intensity measured by confocal microscopy (mean of ten merozoites).
Sequence of PfRhopH3 on the P. falciparum merozoite surface (P. falciparum (endogenous in merozoites)) (Q8I395 25-897): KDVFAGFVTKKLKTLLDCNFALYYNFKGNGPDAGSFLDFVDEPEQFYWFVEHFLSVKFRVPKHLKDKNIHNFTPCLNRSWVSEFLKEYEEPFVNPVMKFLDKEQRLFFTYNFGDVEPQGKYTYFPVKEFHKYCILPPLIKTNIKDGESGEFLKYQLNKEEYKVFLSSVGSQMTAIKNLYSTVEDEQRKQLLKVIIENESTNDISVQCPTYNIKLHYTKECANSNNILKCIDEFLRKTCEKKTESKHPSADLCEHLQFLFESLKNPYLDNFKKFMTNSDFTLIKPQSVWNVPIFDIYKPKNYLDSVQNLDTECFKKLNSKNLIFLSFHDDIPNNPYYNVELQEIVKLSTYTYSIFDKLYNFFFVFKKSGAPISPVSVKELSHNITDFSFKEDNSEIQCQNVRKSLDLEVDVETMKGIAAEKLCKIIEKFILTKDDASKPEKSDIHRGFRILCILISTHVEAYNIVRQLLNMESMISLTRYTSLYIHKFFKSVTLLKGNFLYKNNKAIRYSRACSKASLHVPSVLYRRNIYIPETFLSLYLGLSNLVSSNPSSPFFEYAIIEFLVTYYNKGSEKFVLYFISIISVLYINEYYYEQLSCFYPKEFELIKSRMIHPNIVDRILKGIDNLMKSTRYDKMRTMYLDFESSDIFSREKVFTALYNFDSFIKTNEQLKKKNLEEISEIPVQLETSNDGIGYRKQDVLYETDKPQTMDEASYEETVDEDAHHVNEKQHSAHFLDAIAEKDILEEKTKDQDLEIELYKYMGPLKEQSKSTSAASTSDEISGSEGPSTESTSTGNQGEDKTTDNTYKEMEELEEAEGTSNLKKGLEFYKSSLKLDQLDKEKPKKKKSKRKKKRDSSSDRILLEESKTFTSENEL

Assay [3] addresses PfRh5 (Plasmodium falciparum) (UniProt Q8IFM5). The following applies: cited from earlier work.
Assay [4] has as its target recombinant Cyclophilin B (Sino Biological) (human). In words: SPR; Biacore T200, 25 °C; […]; running buffer 50 mM HEPES, 150 mM NaCl, 5 mM MgCl2, pH 7.4; 1:1 (Langmuir) model. (In SPR one partner is held on a chip, and binding of the other changes the refractive index at the surface.)
Another assay concerns the target T1, PfRh5 protein (P. falciparum, UniProt Q8IFM5 25-526).
T1 sequence: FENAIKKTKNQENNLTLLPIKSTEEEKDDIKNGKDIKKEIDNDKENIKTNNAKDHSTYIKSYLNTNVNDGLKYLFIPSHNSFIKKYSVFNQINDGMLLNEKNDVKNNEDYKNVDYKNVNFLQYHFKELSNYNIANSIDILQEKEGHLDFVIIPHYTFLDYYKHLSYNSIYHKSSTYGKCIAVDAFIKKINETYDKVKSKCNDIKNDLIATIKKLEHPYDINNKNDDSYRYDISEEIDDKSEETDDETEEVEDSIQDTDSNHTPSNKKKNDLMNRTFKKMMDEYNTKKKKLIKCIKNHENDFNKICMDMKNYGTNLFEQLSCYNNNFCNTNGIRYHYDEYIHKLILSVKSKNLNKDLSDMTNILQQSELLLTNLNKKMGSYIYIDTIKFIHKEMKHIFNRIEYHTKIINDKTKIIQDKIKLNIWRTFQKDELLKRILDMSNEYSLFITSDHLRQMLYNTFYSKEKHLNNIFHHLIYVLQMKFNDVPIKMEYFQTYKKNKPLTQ
In words: SPR; Biacore T200, 25 °C; […]; running buffer 50 mM HEPES, 150 mM NaCl, 5 mM MgCl2, pH 7.4; 1:1 model. The following applies: both partners purified.

As to “recombinant Basigin (BSG/CD147, Sino Biological) (from UniProt P35613 138-325) (receptor)”, the Kd in assay [1] came out at 430 nM.

“recombinant Cyclophilin B (Sino Biological) (natural protein)” yielded a reduction of binding to merozoites after treatment with anti-RhopH3-C antibody in assay [2] of more than 50%.

With Basigin (from UniProt P35613), the Kd in assay [3] was 1120 nM.

B1: recombinant PfRhopH3-C protein (aa 617–865) with C-terminal hexa-Histidine tag (domain or fragment)
chain: QLSCFYPKEFELIKSRMIHPNIVDRILKGIDNLMKSTRYDKMRTMYLDFESSDIFSREKVFTALYNFDSFIKTNEQLKKKNLEEISEIPVQLETSNDGIGYRKQDVLYETDKPQTMDEASYEETVDEDAHHVNEKQHSAHFLDAIAEKDILEEKTKDQDLEIELYKYMGPLKEQSKSTSAASTSDEISGSEGPSTESTSTGNQGEDKTTDNTYKEMEELEEAEGTSNLKKGLEFYKSSLKLDQLDKEKP
For the molecule B1, the Kd is 160 nM in assay [4] and 18 nM with PfRh5 protein.
